Nine molecules from patent publication US20210347913A1 (CRISPR THERAPEUTICS, published 2021) can be followed below.

In test [1] the target is T1, PTK7 on PTK7 positive cell line SaOS-2 (osteosarcoma) (UniProt Q13308 31-1070, limits assumed).
T1 sequence (looked up): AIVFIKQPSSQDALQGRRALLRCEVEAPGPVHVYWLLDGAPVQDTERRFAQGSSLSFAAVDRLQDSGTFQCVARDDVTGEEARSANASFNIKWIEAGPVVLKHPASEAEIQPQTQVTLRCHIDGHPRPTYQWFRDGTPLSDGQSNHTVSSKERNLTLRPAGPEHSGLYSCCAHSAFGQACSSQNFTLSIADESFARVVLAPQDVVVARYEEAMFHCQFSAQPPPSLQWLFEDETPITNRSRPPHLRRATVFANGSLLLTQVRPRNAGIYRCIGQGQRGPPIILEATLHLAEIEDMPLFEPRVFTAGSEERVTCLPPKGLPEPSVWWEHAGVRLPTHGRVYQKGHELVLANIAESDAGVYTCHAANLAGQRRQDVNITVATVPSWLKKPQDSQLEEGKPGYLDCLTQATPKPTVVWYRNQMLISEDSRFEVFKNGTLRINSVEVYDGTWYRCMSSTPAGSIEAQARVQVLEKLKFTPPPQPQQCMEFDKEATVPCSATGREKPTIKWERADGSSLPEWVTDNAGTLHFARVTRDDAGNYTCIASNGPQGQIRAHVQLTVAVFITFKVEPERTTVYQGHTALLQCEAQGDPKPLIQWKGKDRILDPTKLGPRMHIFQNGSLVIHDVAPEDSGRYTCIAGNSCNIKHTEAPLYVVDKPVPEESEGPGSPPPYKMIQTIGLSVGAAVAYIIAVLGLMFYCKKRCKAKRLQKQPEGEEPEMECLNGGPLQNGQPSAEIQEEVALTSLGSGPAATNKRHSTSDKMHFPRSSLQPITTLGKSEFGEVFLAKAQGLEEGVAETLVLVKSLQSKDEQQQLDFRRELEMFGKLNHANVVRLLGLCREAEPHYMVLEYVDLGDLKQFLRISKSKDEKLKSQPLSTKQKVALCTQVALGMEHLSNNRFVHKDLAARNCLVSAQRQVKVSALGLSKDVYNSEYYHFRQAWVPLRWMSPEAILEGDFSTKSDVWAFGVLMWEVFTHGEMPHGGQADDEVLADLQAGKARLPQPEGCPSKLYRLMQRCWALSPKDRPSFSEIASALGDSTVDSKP
The test can be described thus: cell-based or functional assay.

The target in test [2] is T1, PTK7 on PTK7 positive cell line SaOS-2 …. The test can be described thus: cell-based or functional assay. This is another data set of the same source.
The target in test [3] is T2, recombinant human PTK7.Fc (R and D Systems, catalog #9799-TK) (human, UniProt Q13308 31-704, limits assumed).
T2 construct: Bought reagent; also called soluble recombinant human PTK7.Fc; soluble antigen PTK7; not shown: Fc part of the bought fusion (detected with anti-human Fc)
T2 sequence (looked up): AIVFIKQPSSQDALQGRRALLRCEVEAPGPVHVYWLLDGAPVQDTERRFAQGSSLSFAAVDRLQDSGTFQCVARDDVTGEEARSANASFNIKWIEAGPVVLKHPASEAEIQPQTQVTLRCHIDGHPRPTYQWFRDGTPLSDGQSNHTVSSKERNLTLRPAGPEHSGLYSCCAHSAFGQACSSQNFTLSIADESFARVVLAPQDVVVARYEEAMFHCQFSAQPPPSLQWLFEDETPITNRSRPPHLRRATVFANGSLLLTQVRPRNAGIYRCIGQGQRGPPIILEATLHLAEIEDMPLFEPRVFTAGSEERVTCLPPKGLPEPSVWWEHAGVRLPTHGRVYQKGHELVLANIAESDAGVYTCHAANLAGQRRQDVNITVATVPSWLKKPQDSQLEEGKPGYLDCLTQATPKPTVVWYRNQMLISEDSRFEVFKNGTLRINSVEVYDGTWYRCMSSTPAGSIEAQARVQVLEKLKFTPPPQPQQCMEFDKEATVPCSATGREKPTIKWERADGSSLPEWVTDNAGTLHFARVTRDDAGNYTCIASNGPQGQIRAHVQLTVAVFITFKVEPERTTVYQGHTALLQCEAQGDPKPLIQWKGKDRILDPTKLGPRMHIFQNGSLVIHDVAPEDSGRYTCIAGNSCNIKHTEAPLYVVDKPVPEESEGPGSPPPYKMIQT
Nature of the test: flow cytometry, percent of CAR T cells positive for 10 ug/mL PTK7.Fc. The protocol: In addition to detecting surface CAR expression, the ability of the CAR T cells and masked CAR T cells to detect target antigen was also determined. Live CAR T cells were gated by their forward scatter (FSC) and side scatter (SSC) profiles, and with DAPI dye (Invitrogen, catalog #: D3571). The cells were then stained with 10 μg/mL recombinant human PTK7.Fc (R and D Systems, catalog #9799-TK Lot DHMCO219041) as described above in Example 3, and with mouse anti-human.Fc conjugated to APC (Biolegend cat #409305) as secondary antibody for detection (FIG. 3).
In general terms: In flow cytometry, cells or beads pass a laser one at a time.

Positions count from the first letter of the chain named. In names and notes the source's numbering stands.

B1: CTX181.M5 (other)
chain: QGCTYPSWVAYIRFCGSSGGSGGSGGSGGGPLGLAGGSSGQVQLVESGGGVVQPGRSLRLSCAASGFTFSSYGMHWVRQAPGKGLEWVAVIWDDGSNKYYVDSVKGRFTISRDNSKNTLYLQMNSLRAEDTAVYYCARDDYYGSGSFNSYYGTDVWGQGTTVTVSSGGGGSGGGGSGGGGSEIVLTQSPATLSLSPGERATLSCRASQSVSIYLAWYQQKPGQAPRLLIYDASNRATGIPARFSGSGSGTDFTLTISSLEPEDFAVYYCQQRSNWPPFTFGPGTKVDIKSAAAFVPVFLPAKPTTTPAPRPPTPAPTIASQPLSLRPEACRPAAGGAVHTRGLDFACDIYIWAPLAGTCGVLLLSLVITLYCNHRNRSKRSRLLHSDYMNMTPRRPGPTRKHYQPYAPPRDFAAYRSRVKFSRSADAPAYQQGQNQLYNELNLGRREEYDVLDKRRGRDPEMGGKPRRKNPQEGLYNELQKDKMAEAYSEIGMKGERRRGKGHDGLYQGLSTATKDTYDALHMQALPPR
notes: Masked chimeric antigen receptor on the surface of TRAC-/B2M- human T cells; entry without signal peptide
Regarding B1, in test [1], the “% Cell killing at E:T = 1:0.5” value came to 29.6% and the “% Cell killing at E:T = 1:1” value is -0.8%. In test [2], the “IFNγ (pg/mL) at E:T = 1:0.5” value came to 523 pg/mL and the “IFNγ (pg/mL) at E:T = 1:1” value was 459 pg/mL. Moreover, the “% Antigen detection” value in test [3] came to 18.5%.

B2: CTX181.M7 (other)
chain: B1 chain with Y5M, S7Y, W8H, V9I, A10H, Y11S, R13G, F14L
notes: as for B1
As to B2, in test [1], the “% Cell killing at E:T = 1:0.5” value is 37.5% and the “% Cell killing at E:T = 1:1” value was found to be 10.2%. Moreover, in test [2], the “IFNγ (pg/mL) at E:T = 1:0.5” value was found to be 885 pg/mL and the “IFNγ (pg/mL) at E:T = 1:1” value stood at 830 pg/mL. Also, the “% Antigen detection” value in test [3] was found to be 28%.

B3: CTX181.M13 (other)
chain: B1 chain with S7P, W8R, V9F, A10H, Y11M, I12H, R13W, F14L
notes: as for B1
Take B3: in test [1], the “% Cell killing at E:T = 1:0.5” value worked out at 68.6% and the “% Cell killing at E:T = 1:1” value turned out to be 41.3%. For the same molecule, in test [2], the “IFNγ (pg/mL) at E:T = 1:0.5” value was determined as 4860 pg/mL and the “IFNγ (pg/mL) at E:T = 1:1” value stood at 6170 pg/mL. In addition, in test [3], the “% Antigen detection” value was determined as 37.5%.

B4: CTX181.M4 (other)
chain: B1 chain with Y5F, S7N, W8T, V9T, A10M, Y11Q, I12R, R13T
notes: as for B1
B4: in test [1], the “% Cell killing at E:T = 1:0.5” value stood at 78.4% and the “% Cell killing at E:T = 1:1” value amounted to 54.6%. Moreover, in test [2], the “IFNγ (pg/mL) at E:T = 1:0.5” value amounted to 9550 pg/mL and the “IFNγ (pg/mL) at E:T = 1:1” value came out at 13200 pg/mL. Moreover, in test [3], the “% Antigen detection” value was found to be 32.6%.

B5: CTX181.M14 (other)
chain: B1 chain with Y5H, P6V, S7A, W8Q, V9W, Y11I, I12K, R13A
notes: as for B1
For the molecule B5, in test [1], the “% Cell killing at E:T = 1:0.5” value was determined as 52.8% and the “% Cell killing at E:T = 1:1” value was 29.5%. Moreover, in test [2], the “IFNγ (pg/mL) at E:T = 1:0.5” value came out at 1760 pg/mL and the “IFNγ (pg/mL) at E:T = 1:1” value came out at 1930 pg/mL. Also, the “% Antigen detection” value in test [3] was determined as 36.2%.

B6: CTX181.M10 (other)
chain: QGCYIGLRMVPCFHMGSSGGSGGSGGSGGGPLGLAGGSSGQVQLVESGGGVVQPGRSLRLSCAASGFTFSSYGMHWVRQAPGKGLEWVAVIWDDGSNKYYVDSVKGRFTISRDNSKNTLYLQMNSLRAEDTAVYYCARDDYYGSGSFNSYYGTDVWGQGTTVTVSSGGGGSGGGGSGGGGSEIVLTQSPATLSLSPGERATLSCRASQSVSIYLAWYQQKPGQAPRLLIYDASNRATGIPARFSGSGSGTDFTLTISSLEPEDFAVYYCQQRSNWPPFTFGPGTKVDIKSAAAFVPVFLPAKPTTTPAPRPPTPAPTIASQPLSLRPEACRPAAGGAVHTRGLDFACDIYIWAPLAGTCGVLLLSLVITLYCNHRNRSKRSRLLHSDYMNMTPRRPGPTRKHYQPYAPPRDFAAYRSRVKFSRSADAPAYQQGQNQLYNELNLGRREEYDVLDKRRGRDPEMGGKPRRKNPQEGLYNELQKDKMAEAYSEIGMKGERRRGKGHDGLYQGLSTATKDTYDALHMQALPPR
notes: as for B1
Turning to B6, in test [1], the “% Cell killing at E:T = 1:0.5” value came out at 32.7% and the “% Cell killing at E:T = 1:1” value was found to be 25.8%. Besides, in test [2], the “IFNγ (pg/mL) at E:T = 1:0.5” value stood at 2110 pg/mL and the “IFNγ (pg/mL) at E:T = 1:1” value stood at 1880 pg/mL. In test [3], the “% Antigen detection” value turned out to be 28%.

B7: CTX181.M6 (other)
chain: B1 chain with C3V, T4C, Y5T, P6Y, S7P, W8P, V9A, A10H, Y11R, I12T
notes: as for B1
Consider B7, for which, in test [1], the “% Cell killing at E:T = 1:0.5” value stood at 42.4% and the “% Cell killing at E:T = 1:1” value was determined as 13.9%. Further, in test [2], the “IFNγ (pg/mL) at E:T = 1:0.5” value was 735 pg/mL and the “IFNγ (pg/mL) at E:T = 1:1” value is 715 pg/mL. Also, the “% Antigen detection” value in test [3] worked out at 14.7%.

B8: CTX181.M8 (other)
chain: B1 chain with C3W, T4C, Y5T, P6I, S7P, W8S, V9S, A10M, Y11S, F14L
notes: as for B1
As for B8, in test [1], the “% Cell killing at E:T = 1:0.5” value amounted to 15.4% and the “% Cell killing at E:T = 1:1” value is 3.9%. In test [2], the “IFNγ (pg/mL) at E:T = 1:0.5” value was found to be 400 pg/mL and the “IFNγ (pg/mL) at E:T = 1:1” value was found to be 443 pg/mL. Moreover, in test [3], the “% Antigen detection” value stood at 20.2%.

B9: CTX181.M11 (other)
chain: B1 chain with Y5M, W8H, V9A, A10V, Y11A, I12S, R13F, F14L
notes: as for B1
Take B9: in test [1], the “% Cell killing at E:T = 1:0.5” value was 20.1% and the “% Cell killing at E:T = 1:1” value was determined as 12.7%. Moreover, in test [2], the “IFNγ (pg/mL) at E:T = 1:0.5” value was 884 pg/mL and the “IFNγ (pg/mL) at E:T = 1:1” value turned out to be 887 pg/mL. Moreover, the “% Antigen detection” value in test [3] is 30.3%.
